Results on one molecule are retold here after patent publication US10874712B2, “Methods, compounds and compositions for modulating blood brain barrier integrity and re-myelination” (University Health Network, priority 2015, dated 2020).

The subject of one experiment is EAE-induced mice. Kind of experiment: Histological staining (H&E, Luxol Fast Blue) of cervical spinal cord, inflammatory index. It is filed as in vivo, mouse. Conditions: EAE day 18; vs vehicle. As to the method: At day 18 post-EAE induction, mice were trans-cardially perfused with 20 mL PBS followed by 20 mL 4% paraformaldehyde in PBS (PFA) (Electron Microscopy Sciences) and 30 μm spinal cord cryosections were stained. The slides were washed in PBS for 3 min, followed by a 30 s wash in 50% ethanol (EtOH) and incubated overnight in Luxol Fast Blue (LFB) at 60° C. The sections were washed in 95% EtOH for 5 min, distilled water for 5 min prior to de-staining with […] for 10 min, and were then washed in 70% EtOH for 30 s, 5 min in MilliQ H2O, and sections were immersed in Harris Hematoxylin (Sigma-Aldrich) for 20 min and were rinsed in warm water to remove excess stain. Samples were dehydrated in 95% EtOH, immersed in alcoholic eosin Y (Sigma-Aldrich) for 15 s, dehydrated twice in 95% EtOH for 5 min, 100% EtOH for 5 min and xylene for 5 min. Slides were mounted with Permount (Fisher Scientific) and air-dried overnight at room temperature. Luxol Fast Blue (LFB) staining was quantified using relative staining intensity using Image J software. All intensities were normalized to a sham mouse spinal cord.
Cellular infiltration was quantified using an inflammatory index: 0, no inflammation; 1, cellular infiltration only in the perivascular areas and meninges; 2, mild cellular infiltration in the parenchyma (<10 cells); 3, moderate cellular infiltration in the parenchyma (10-49 cells); 4, moderate cellular infiltration in the parenchyma (50-99 cells); and 5, severe cellular infiltration in parenchyma (>100 cells).

The subject of experiment [1] is mouse cerebellar organotypic cultures. Kind of experiment: Remyelination in lysolecithin-demyelinated cerebellar organotypic cultures (MBP staining). It is filed as cell-based. Conditions: sRGMc 500 ng/ml for 14 days after lysolecithin. The method, then:
To assess the ability of sRGMc to function as a remyelinating agent, its function in in vitro cerebellar explant cultures was investigated. Briefly, cultures were demyelinated using lysolecithin, a detergent, and then cultured in the presence of sRGMc for 14 days.
Myelination-demyelination-remyelination studies were performed in mouse cerebellar organotypic cultures. The cerebella of postnatal 6 day old pups were dissected and sectioned at 400 μm thickness using vibratome. Cerebellar sections were then plated on insert plates (Corning, Wilkes Barre, Pa.) and allowed to attach. Media was replaced every 2-3 days and cultures were maintained for 7 days. To induce demyelination, 0.5 mg/ml lysolecithin (1′-monoacyl-1-3-glycerylphosphorylcholine; Sigma) was added to the culture medium for 18 hr, after which it was removed and replaced with fresh medium containing sRGMc (500 ng/ml) or control protein and the cultures maintained for 14 more days. Media was replaced every 2-3 days. Demyelination-remyelination was assessed by staining explants with myelin basic protein antibody MBP (Cell Signaling).

Experiment [2] has as its system MOG(35-55)-pulsed splenocytes of EAE-induced mice. Briefly: MOG-specific cytokine expression, secretion and proliferation of splenocytes. The class given is in vivo, mouse. As to the method: Mice were sacrificed on day 10 post-induction and single cells suspension of splenocytes were harvested as described above. Cells (1×10^6) were cultured in 10% FBS RPMI-1640 in the presence of 0 μg/mL, 30 μg/mL, or 100 μg/mL of MOG peptide for 15 h. Cells were then treated with GolgiStop (BD Biosciences) and incubated an additional 3 h and were subsequently stained.
Plates were centrifuged at 1800 rpm for 5 min and the media was then harvested and stored at −80 C until analysis. Cytokine secretion of IL-17a, IL-6, TNF-α, and IFN-γ were assessed using the BD cytometric Bead Array (CBA) (BD Biosciences) according to the manufacturer's guidelines. Splenocyte proliferation was determined using CellTrace™ CFSE Cell Proliferation Kit for flow cytometry (Life Technologies) according to manufacturer's instructions. Briefly, 1×10^6 cells were suspended in warm PBS/0.1% BSA and stained with CFSE solution at a final concentration of 5 μM and incubated at 37° C. for 10 min. The staining was quenched using 5 volumes of ice-cold culture media, incubated for 5 min on ice, centrifuged at 700 rcf for 5 min, washed twice using culture medium, and re-suspended in 10% FBS complete RPMI-1640. Cells were then cultured in 0 μg/mL or 30 μg/mL of MOG(35-55) peptide for 72 h at 37° C., 5% CO2. […] Proliferation was analyzed by flow cytometry following staining in the presence of PI.

Experiment [3] relates to Claudin 5 in b.End3 cells. Briefly: Claudin 5 expression in endothelial cells by Western blot. The class given is cell-based, mouse. Conditions: incubation with RGM proteins, vs PBS. As to the method:
Cells were pretreated for 6 h with PBS, RGMc, RGMa or RGMc+RGMa. Western blotting was performed on the lysates with Claudin-5 and GAPDH antibodies.
Next, the BBB permeability was assessed by injecting mice with BSA, RGMa, RGMa plus RGMc and subsequently followed by assessment of Texas dye leakage using widefield imaging as an indication of BBB integrity. […] Thus, Claudin 5 expression following RGMa/c treatments of murine-derived brain endothelial cells (b.End3) was studied. B.En3 cells were grown up to 80% confluency and were treated with overnight incubation with RGM proteins.

For another experiment, the system named is b.end3 cells. Briefly: In vitro BBB permeability, Dextran-FITC extravasation in Boyden chamber. The class given is cell-based, mouse. Particulars: b.end3 monolayer; 4 h pre-treatment (10 μg/mL sRGMc, 10 μg/mL C3 Transferase or 10 μM Y27632), then RGMa 18 h. The method, then:
(A) Neogenin expression was analyzed on the membrane of b.end3 cells using immunohistochemical staining and by Western blot. (B) Crystal violet staining showing the b.end3 cell monolayer, (C) Representative diagram of the boyden chamber set up and (D) BBB permeability in b.end3 cells. Serum-starved cells were incubated for 4 h with RGMa (10 μg/ml), C3 Transferase (10 μg/mL) or Y27632 (10 μM) or sRGMc (10 μg/mL) and were then incubated with sRGMa (5 μg/mL) for 18 h followed by seeding of Dextran-FITC onto the upper chamber. Extravasation was measured over a period of 60 min as described in the Examples. n=3, performed in triplicates.
b.End3 endothelial cells were used to generate an in vitro model of the human EC barrier lining the choroid plexus. Briefly, b.end3 cells were plated on polyethylene-coated 0.4 μm pore size Boyden chambers (Corning) at a density of 2×10^5 cells per well in DMEM, and were allowed to grow for 72 h to reach confluency (verified using crystal violet staining). After 72 h, cells were serum starved for 6 h and pre-treated for 4 h with 10 μg/mL sRGMc, 10 μg/mL C3 Transferase or 10 μM Y27632. RGMa was then added to the wells for 18 h. The transwells were then transferred to a new plate containing 500 μl of HBSS and 200 μl 4-KDa Dextran-FITC (25 mg/ml; Sigma-Aldrich) was added to the upper chambers. Tracer diffusion across the EC monolayer was assessed in 30 min intervals for a period of 1.5 h. FITC signal, which represented the amount of extravasation through the monolayer was analyzed with using a microplate reader.

B1: sRGMc: truncated form of RGMc with the GPI anchor sequence removed, released as a soluble protein (SEQ ID NOs: 1 and 3) (protein, listed as Homo sapiens)
chain: CKILRCNAEYVSSTLSLRGGGSSGALRGGGGGGRGGGVGSGGLCRALRSYALCTRRTARTCRGDLAFHSAVHGIEDLMIQHNCSRQGPTAPPPPRGPALPGAGSGLPAPDPCDYEGRFSRLHGRPPGFLHCASFGDPHVRSFHHHFHTCRVQGAWPLLDNDFLFVQATSSPMALGANATATRKLTIIFKNMQECIDQKVYQAEVDNLPVAFEDGSINGGDRPGGSSLSIQTANPGNHVEIQAAYIGTTIIIRQTAGQLSFSIKVAEDVAMAFSAEQDLQLCVGGCPPSQRLSRSERNRRGAITIDTARRLCKEGLPVEDAYFHSCVFDVLISGDPNFTVAAQAALEDARAFLPDLEKLH
For the molecule B1, in the experiment with EAE-induced mice, the “extent of cellular infiltrates in cervical spinal cord” value is recorded as “significantly reduced”, the “extent of de-myelination (Luxol Fast Blue)” value is “significantly reduced” and the inflammatory index score entry is “significantly lower”. For the same molecule, the “remyelination (myelin basic protein staining)” value in experiment [1] was “promote remyelination”. The “cytokine secretion (IL17, IFN-γ, TNFα, IL6) of MOG-pulsed splenocytes” value in experiment [2] (pulsed with MOG for 96 h, ELISA, vs vehicle) is listed as “does not alter”. In experiment [2] (re-stimulated for 18 hrs, vs control mice), the “cytokine profile of splenocytes re-stimulated with MOG(35-55)” value was “no apparent effect”. Besides, in experiment [3], the “Claudin 5 levels” value is listed as “did affect Claudin5 levels”. Besides, the “extravasation of Dextran-FITC in sRGMa-treated cells” value in the experiment on b.end3 cells was “reproduced the RhoA/RhoK inhibitor effect”.
